The subject of assay [1] is J774 cells. Description: Fluorescence microscopy: internalization of the cargo protein E7 to the cell. Particulars: 1.66 μM protein, J774, 37° C., 30 min, 1 hour and 2 hours, FIG. 4. The class given is cell-based. On the procedure:
Cells J774 grown on sterile glass cover slips of 22 mm overnight at 37° C. and 5% of CO2 with RPMI 1640, 10% inactivated calf fetal serum and 2 mM de glutamine. Then, different glass cover slips incubated with 1.66 μM fusion protein LALF-E7, 1.66 μM of protein E7 and PBS (as negative control) a 37° C. per 30 min, 1 hour and 2 hours. CasKi cells (human cells expressing HPV 16) grown as positive control in the same experimental conditions.
After incubation the cells were washed briefly with PBS and fix cells by 4% paraformaldehide per 20 min at room temperature. Wash in three changes of PBS. The permeabilization of the cells was with 0.5% Tritón X-100 for 15 min a room temperature. Wash in three changes of PBS. Then, the cells were incubating for 1 hour in 1% blocking SFB in PBS at room temperature. Wash in three changes of PBS. Cells were incubated with goat IgG anti E7/HPV 16 polyclonal antibody (Santa Cruz) diluted in PBS 1:50. Wash extensively with PBS. Incubate with anti-goat-fluorescein IgG polyclonal antibody (Santa Cruz) diluted in PBS 1:50 for 45 minutes in a dark chamber. Wash extensively with PBS. Mount cover slip with aqueous mounting medium. Examine using a fluorescence microscope with appropriate filters.

In assay [2] the test system is TC-1 tumor cell line expressing the HPV16 E7 protein. The experiment in a line: Treatment of established TC-1 tumors in mice (Example 8). Particulars: two immunizations every 14 days from day 10, volume at the 30 days, p<0.01 vs E7, LALF and PBS, FIG. 7. The class given is in vivo, Mice C57BL/6. From the text:
In order to observe the regression of established tumors from the treatment with the recombinant protein fusion LALF-E7, the tumor cell line TC-1, was used. The TC-1 tumor cell line expressing the HPV16 E7 protein was derived from primary lung cells of C57Bl/6 mice by immortalization and transformation with HPV16 E6 and E7 genes and an activated human C-Ha-ras gene as described in Lin et al. (1996)) Treatment of established tumors with a novel vaccine that enhances major histocompatibility class II presentation of tumor antigen. Cancer Res. 56:21-26. For tumor inoculation, TC-1 cells, supplied by Dr. T.-C. Wu (The Johns Hopkins Medical Institutions, Baltimore, Md.), were grown to 60-70% confluence in RPMI1640 medium supplemented with 10% fetal calf serum (Hyclone, Logan, Utah), nonessential amino acids, glutamine, pyruvate, gentamycin, beta-mercaptoethanol and 0.4 mg/mL Geneticin at 37° C. Cells were harvested by trypsinization and resuspended in Hank's buffer solution at […].
Mice C57BL/6 was inoculated with 2×10^5 cells by subcutaneous injection in right leg in volumes of 0.2 mL. […] The tumor kinetic in the different groups was followed by the tumor volume which was determined using electronic calipers and taking the measures in two orthogonal dimensions. Tumor volumes (mm^3) were calculated from these measurements according to (length×width^2)/2. […]

Assay [3] shares this test system. The experiment in a line: Treatment of established TC-1 tumors in mice, fusion versus mix (Example 9). The conditions noted are these: two immunizations every 14 days from day 10, volume at the 30 days, p<0.01 vs LALF+E7, LALF, E7 and PBS, FIG. 8. The class given is in vivo, Mice C57BL/6. On the procedure: To study whether the antitumor effect of LALF-E7 was associated with the covalent bond of both molecules, we carried out experiments in which mice were treated for LALF and E7, which were mixed at the time prior to their use at equal molarity that would allow a comparison with mice that received the fusion protein LALF-E7.
In this realization, Mice C57BL/6 was inoculated with 2×10^5 cells by subcutaneous injection in right leg in volumes of 0.2 mL. To the 10 days, when all the animals had developed palpable tumors, the animals were assigned arbitrarily to five groups of treatments. Each group included 10 animals.
Two immunizations, every 14 days were made. The group 1 was immunized with the recombinant protein LALF-E7; group 2 with the mix LALF+E7: recombinant protein E7; group 3 with synthetic peptide LALF; group 4 with recombinant protein E7 and group 5 with PBS. The tumor kinetic in the different groups was followed as previously described in the example 8. The volume average of each group +/− the standard deviation at the 30 days is represented in the FIG. 8.

Assay [4] relates to J774 cells. Description: Western blot: internalization of the cargo protein E7 to the cell. The format is cell-based. The conditions noted are these: 25 μM protein, J774, 4 hours at 37° C., FIG. 5. On the procedure:
The cells J774 grown overnight at 37° C. and 5% of CO2 with RPMI 1640, 10% inactivated calf fetal serum and 2 mM de glutamine. After that, the cell were aliquoted in tubes with 5×10^6 cells each and incubated with 25 μM of fusion protein LALF-E7, 25 μM of protein E7 and PBS during 4 hours at 37° C. The sedimentation of the cells was made by a centrifugation to 1000 rpm by 10 minutes. Wash pellet in three changes of PBS. Cells were ruptured in 100 μL of RIPA buffer (Promega) mixed in vortex per 10 second and 2 min in ice. The sedimentation of the broken cells was made by a centrifugation to 12000 rpm by 15 minutes. Protein concentration was determined to the cell extract and rum 10 μg of total protein in 15% polyacrilamide gel. Subsequently the gel was transferred to a nitrocellulose membrane. The membrane was incubated for 2 hours at room temperature with an IgG goat polyclonal antibody anti-E7 HPV 16 (Santa Cruz) diluted in PBS (1:100). Wash in three changes of PBS. Subsequently, the membrane was incubated for 45 minutes at room temperature and in a dark room with an anti-goat IgG peroxidase conjugate (Sigma) diluted in PBS (1:5000). Wash in three changes of PBS. Finally the ECL system from Amersham Pharmacia Biotech was used.

B1: LALF-E7: recombinant fusion of CPP LALF to E7 protein of HPV 16, cysteine per glycine in Rb site (SEQ ID N0. 9 y 10) (protein)
chain: MAEFHYRIKPTFRRLKWKYKGKFWKASHGDTPTLHEYMLDLQPETTDLYGYEQLNDSSEEEDEIDGPAGQAEPDRAHYNIVTFCCKCDSTLRLCVQSTHVDIRTLEDLLMGTLGIVCPICSQKPGSRAHHHHHH
modifications: Artificial Sequence Description Protein fusion CPP LALF-E7
With B1, the “internalization of E7 (fluorescent cells, anti-E7 antibody)” value with J774 cells [1] is on record as “fluorescent cells”. Besides, in assay [2], the “effect on growth of established tumors (tumor volume)” value was “full inhibition of growth of established tumors”. Also, the “effect on volume of established tumors” value in assay [3] is “effects in reducing the volume of tumors”. In addition, in the assay on J774 cells [4], the “detection of protein in cell extract by anti-E7 antibody (Western blot)” value is recorded as “recognized by the anti-E7 antibody”.
